# Experimental data reported in patent US20090082262A1 (published 2009).
# *: point of attachment. Nonanoyl = CCCCCCCCC(=O)*
# T1: chemokine receptor 1 (CCR1) (UniProt P56482 1-355)
# T1 chain: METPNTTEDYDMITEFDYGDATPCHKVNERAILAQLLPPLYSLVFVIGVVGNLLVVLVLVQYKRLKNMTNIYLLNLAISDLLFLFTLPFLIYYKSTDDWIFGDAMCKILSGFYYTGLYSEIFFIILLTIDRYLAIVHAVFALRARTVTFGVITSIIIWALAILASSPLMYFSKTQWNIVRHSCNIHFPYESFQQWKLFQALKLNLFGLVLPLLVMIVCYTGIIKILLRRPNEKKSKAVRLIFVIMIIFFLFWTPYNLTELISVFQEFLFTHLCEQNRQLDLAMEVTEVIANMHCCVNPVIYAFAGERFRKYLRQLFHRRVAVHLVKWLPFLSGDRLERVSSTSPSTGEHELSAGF
# B1: HCC-1[8-74] (ligand)
# chain: RGPYHPSECCFTYTTYKIPRQRIMDYYETNSQCSKPGIVFITKRGHSVCTNPSDKWVQDYIKDMKEN
# B2: RANTES (ligand)
# chain: SPYSSDTTPCCFAYIARPLPRAHIKEYFYTSGKCSNPAVVFVTRKNRQVCANPEKKWVREYINSLEMS
# B3: HCC-1[12-74] (protein)
# chain: HPSECCFTYTTYKIPRQRIMDYYETNSQCSKPGIVFITKRGHSVCTNPSDKWVQDYIKDMKEN
# B4: HCC-1[10-74] (ligand)
# chain: PYHPSECCFTYTTYKIPRQRIMDYYETNSQCSKPGIVFITKRGHSVCTNPSDKWVQDYIKDMKEN
# B5: NNY-HCC-1[10-74] (ligand)
# chain: Nonanoyl-PYHPSECCFTYTTYKIPRQRIMDYYETNSQCSKPGIVFITKRGHSVCTNPSDKWVQDYIKDMKEN
# modifications: ends and bridges not checked
# B6: HCC-1[11-74] (ligand)
# chain: YHPSECCFTYTTYKIPRQRIMDYYETNSQCSKPGIVFITKRGHSVCTNPSDKWVQDYIKDMKEN
# B7: HCC-1[7-74] (ligand)
# chain: SRGPYHPSECCFTYTTYKIPRQRIMDYYETNSQCSKPGIVFITKRGHSVCTNPSDKWVQDYIKDMKEN
# B8: HCC-1, residues 6-74 (ligand)
# chain: SSRGPYHPSECCFTYTTYKIPRQRIMDYYETNSQCSKPGIVFITKRGHSVCTNPSDKWVQDYIKDMKEN
# B9: PHC-1 (HCC-1[9-74]) (ligand)
# chain: GPYHPSECCFTYTTYKIPRQRIMDYYETNSQCSKPGIVFITKRGHSVCTNPSDKWVQDYIKDMKEN
# Molecular target: T1, chemokine receptor 1 (CCR1)
# Assay: competition binding
row,Binder,IC50 [nM]
1,B1,2.42
2,B2,0.166
3,B3,50.1
4,B4,0.182
5,B5,0.0843
6,B6,5.07
7,B7,4.36
8,B8,6.52
9,B9,0.104
